According to article PMC4798592:
pKd: −log10 of the molar value.

How the values were obtained:
Conditions in all cases: EMSA: 20 mM phosphate pH 8.0, 100 mM NaCl, 5% glycerol, with or without TX-100, 0.1 nM 32P-DNA, 20 min on ice, 6% native PAGE
[1] = test system: rSarA (Staphylococcus aureus); experiment: EMSA
[2] = test system: C9W (rSarA C9W) (Staphylococcus aureus); experiment: EMSA
[3] = test system: C9W (rSarA C9W) (Staphylococcus aureus); experiment: EMSA; remark: listed apart in the source
[4] = test system: rSarA (Staphylococcus aureus); experiment: EMSA; remark: listed apart in the source
[5] = test system: rSarA (Staphylococcus aureus); experiment: EMSA; remark: listed apart in the source
[6] = test system: C9W (rSarA C9W) (Staphylococcus aureus); experiment: EMSA; remark: listed apart in the source
[7] = test system: C9W (rSarA C9W) (Staphylococcus aureus); experiment: EMSA; remark: listed apart in the source
[8] = test system: rSarA (Staphylococcus aureus); experiment: EMSA; remark: listed apart in the source
[9] = biological target: T1, rSarA (Staphylococcus aureus) (UniProt A6QES8); experiment: DNase I footprinting
T1 sequence: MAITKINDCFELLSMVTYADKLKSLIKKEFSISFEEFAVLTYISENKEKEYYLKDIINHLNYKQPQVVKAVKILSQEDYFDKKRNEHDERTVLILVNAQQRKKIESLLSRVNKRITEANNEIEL

Row | Substance | pKd [1] | pKd [2] | pKd [3] | pKd [4] | pKd [5] | pKd [6] | pKd [7] | pKd [8] | binding [9]
1 | hla promoter DNA | 7.46 | 7.01 | 6.40 | 6.44 | 7.30 | 7.22 | 7.24 | 7.70 | –
2 | CTATTAGATATTTCTATGTAATGGCAAAATTTATTCCCGACGAAATTCCAAACATAATTAATACCCTTTTTCTCTATTTCTATTTATTAATTTACACTAGTTAATATATAGTTAATTTTTATTTAATAGTTAATTAATTGATTTAATTCTAAGATATTTGTATTTTTATATTGTAATCGATTACATTTTTAAATCAAACAAATCATTAGTTTTAAAGAAATTAATCAATAAAATTAGCTATGT (double strand) [hla promoter DNA, bottom strand labelled (footprinting)] | – | – | – | – | – | – | – | – | binds
